Read-outs that look alike come from different tables or passages of the source.
T1: Human CXCR2 (Homo sapiens, UniProt P25025)
T1 sequence (P25025 1-360): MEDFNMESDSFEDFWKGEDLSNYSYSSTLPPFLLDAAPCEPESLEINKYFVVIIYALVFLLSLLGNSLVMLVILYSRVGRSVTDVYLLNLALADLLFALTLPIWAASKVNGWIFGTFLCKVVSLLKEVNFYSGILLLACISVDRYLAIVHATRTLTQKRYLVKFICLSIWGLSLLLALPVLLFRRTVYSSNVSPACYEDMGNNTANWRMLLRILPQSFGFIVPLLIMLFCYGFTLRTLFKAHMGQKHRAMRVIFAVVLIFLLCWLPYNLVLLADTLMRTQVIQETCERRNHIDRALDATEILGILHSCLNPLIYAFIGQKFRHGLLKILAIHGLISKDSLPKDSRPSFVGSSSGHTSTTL

T2: native human CXCR2 expressed by human neutrophils (Homo sapiens, UniProt P25025)
T2 construct: native human CXCR2 expressed by human neutrophils; endogenous in cells; host or cells: human peripheral blood cells (buffy coat, PBMC-enriched fractions, anticoagulated blood): neutrophils, monocytes
T2 sequence (P25025 1-360): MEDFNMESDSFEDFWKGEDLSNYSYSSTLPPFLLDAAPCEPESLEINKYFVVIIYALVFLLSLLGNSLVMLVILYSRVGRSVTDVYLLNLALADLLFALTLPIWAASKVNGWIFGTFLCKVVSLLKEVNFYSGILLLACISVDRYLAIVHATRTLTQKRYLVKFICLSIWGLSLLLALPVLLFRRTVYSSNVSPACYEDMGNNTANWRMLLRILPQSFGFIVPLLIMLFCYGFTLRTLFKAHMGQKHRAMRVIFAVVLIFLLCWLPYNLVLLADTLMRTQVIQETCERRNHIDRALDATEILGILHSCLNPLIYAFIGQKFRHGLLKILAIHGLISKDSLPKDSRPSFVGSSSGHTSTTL


Columns and labels:
Human CXCR2 = target: T1, Human CXCR2; assay: Tango CXCR2-bla U2OS cell-based β-arrestin recruitment assay; parameters: The beta-arrestin/TEV protease fusion and the beta-lactamase reporter are separate parts of the cell line
Excerpt: Cells were thawed, propagated, cultured and frozen according to the manufacturer's directions.
Preparation of Tango™ CXCR2-bla U2OS cells for use in cell-based assays: The manufacturer's protocol was altered to make use of 96-well plates instead of 384-well plates. Briefly, dividing cells were harvested one day prior to use. Cells were harvested and resuspended in assay medium (100% FreeStyle™ Expression Medium; Life Technologies; Cat #12338-018) at a viable cell density of 312,500 cells/mL. 128 μL of cell suspension was added per well in 96-well black-walled, clear bottom tissue culture-treated plates. Cells were incubated for 16-20 hrs at 37° C. in an atmosphere of 5% CO2 prior to use in assays.
Tango™ assay procedure: Assays were set up and run as described in the manufacturer's protocol. For antagonist assays, agonists were used at concentrations in the EC50-EC80 range. Assays were read using a FlexStation® 3 (Molecular Devices) fluorescence plate reader configured with the parameters given in Table 4. The blue/green emission ratio for each well was calculated by dividing the blue emission values by the green emission values. All inhibition curves were fitted using a four-parameter dose-response using GraphPad Prism™ (Version 7.01).
The Human CXCR2 Tango™ cell line was used to assess the ability of antibody BKO-4A8-101c to inhibit β-arrestin recruitment to agonist-activated CXCR2. All human ELR+ chemokine CXCR2 ligands were tested in antagonist dose response assays using calculated EC50 values of agonist.
The commercially available reporter cell line Tango™ CXCR2-bla U2OS (ThermoFisher Scientific) was used to assess the ability of the anti-CXCR2 antibodies to inhibit β-arrestin recruitment to agonist-activated CXCR2. Agonists were provided at their assay EC50 concentration for antagonist assays.

[1] = target: T2, native human CXCR2 expressed by human neutrophils; assay: Flow cytometry binding to human blood cells (neutrophils, monocytes, PBMC preparations)
Method: Whole human buffy coat, PBMC enriched fractions prepared from human peripheral blood buffy coat or cynomolgus monkey whole blood was used for analysis of antibody binding activity by flow cytometry. Briefly, blood was untreated or diluted 1:1 in sterile filtered room temperature phosphate-buffered saline (PBS). 30 mL samples were layered over 15 mL Lymphoprep™ (Stem Cell Technologies, cat #07851). Peripheral blood mononuclear cells (PBMC) were enriched by room temperature centrifugation at 700 g for 30 minutes with no braking. The PBMC layer was isolated and cells washed in PBS containing 2 mM EDTA with low speed centrifugation at 200 g, to remove platelet contamination. Whole blood or PBMC enriched cell fractions were resuspended in red blood cell lysing solution (BioLegend, 420301). Viable cell counts were determined and cells resuspended at 1×10^7 cells per mL in FACS buffer (1×PBS+0.5% (w/v) BSA+2 mM EDTA pH 7.2).
Flow cytometry binding assays using whole blood or PBMC enriched preparations: Binding assays to detect CXCR2 on blood neutrophil populations using test antibodies were performed essentially as described for assays using transiently transfected Expi293F™ cells. Binding of antibodies to human CXCR2 on the surface of the neutrophils was measured using anti-CXCR2 antibody directly conjugated to the fluorophore allophycocyanin (APC). Matched isotype control antibodies were included for comparison. Cells were incubated with lineage specific antibodies and 2 μg/ml of APC conjugated anti-CXCR2 antibody or isotype control prepared in ice cold 3% BSA/PBS for a minimum of 30 minutes at 4° C. The commercial anti-CXCR2 antibody (clone 48331 (R&D Systems FAB331A)) was used as a positive control. Neutrophil populations were identified by characteristic granularity and size, and positive binding of commercially available antibodies against CD10 (Biolegend, clone H110a, catalogue number 312204). Cells were washed and fixed (BioLegend Fixation buffer, 420801) prior to analysis. The level of fluorescence on the cell surface was measured by flow cytometry. Using this method, test anti-CXCR2 antibodies were detected binding neutrophils from both human and cynomolgus monkey.
To further characterize the anti-CXCR2 antibody BKO-4A8-101c, the ability to bind CXCR2 on neutrophils was tested on anticoagulated human blood. Binding was measured using BKO-4A8-101c directly conjugated to fluorophore APC. Matched isotype control antibodies conjugated to APC were included for comparison. Cells were incubated with lineage-specific antibodies and 2 μg/mL of APC conjugated anti-CXCR2 antibody or isotype control. The level of fluorescence on the cell surface was measured by flow cytometry. […]

potency of inhibition of CXCL1-mediated activation of CXCR2, ranking (Human CXCR2; agonist CXCL1, BKO-4A8, BKO-8G3_b, BKO-9C3_a compared)	IC50 (Human CXCR2; agonist CXCL1, combinatorial variants, read-out: CXCL1 IC50)	IC50 (Human CXCR2; agonist CXCL1, point variants, read-out: Tango Assay IC50 (nM) CXCL1)	IC50 (Human CXCR2; read-out: CXCL8 IC50, agonist CXCL8, combinatorial variants)	IC50 (Human CXCR2; read-out: Tango Assay IC50 (nM) CXCL8, agonist CXCL8, point variants)	binding to native human CXCR2 on human PBMCs / neutrophils ([1]; FIG. 2, MFI)	Molecule	fold more potent than comparator CXCR2 antagonist antibodies or small molecules (Human CXCR2; CXCL1- or CXCL5-mediated β-arrestin activation, based on IC50 values)	CXCL1 Maximal Inhibition % (Human CXCR2; CXCL1 at EC50, comparison with comparators)	potency compared to the parental antibody (Human CXCR2; CXCL1 or CXCL8 as agonist)	CXCL5 Maximal Inhibition % (Human CXCR2; CXCL5 at EC50, comparison with comparators)	partial inhibition of CXCL8-induced β-arrestin recruitment (range) (Human CXCR2; CXCL8)	CXCL8 Maximal Inhibition % (Human CXCR2; CXCL8 at EC50, comparison with comparators)	Maximal Inhibition % Mean (Human CXCR2; Hu CXCL1)	Maximal Inhibition % Mean (Human CXCR2; Hu CXCL2)	Maximal Inhibition % Mean (Human CXCR2; Hu CXCL3)	Maximal Inhibition % Mean (Human CXCR2; Hu CXCL5)	Maximal Inhibition % Mean (Human CXCR2; Hu CXCL6)	Maximal Inhibition % Mean (Human CXCR2; Hu CXCL7)	Maximal Inhibition % Mean (Human CXCR2; Hu CXCL8)	binding to neutrophils and monocytes from human blood ([1]; APC conjugate, 2 μg/mL)
consistently the most potent	94 nM	0.177 nM	0.66 nM	0.112 nM	high binding activity	BKO-4A8: parental anti-CXCR2 antibody, VH SEQ ID NO: 17, VL SEQ ID NO: 18 (antibody, V domains shown, BKO_4A8_VH; BKO_4A8_VL) VH: EVQLLESGGGLVQPGGSLRLSCAASGFTFSSSTMSWVRQAPGKGLEWVSAISGRGRNTYYADSVKGRFTISRDNSRNTLYLQMNSLRAEDTAVYYCAIQMGYWGQGILVTVSS VL: QSALTQPPSASGSPGQSVTISCIGTSSDVGGYNYVSWYQQHPDKAPKLMIYEVNKRPSGVPDRFSGSKSGNTASLTVSGLQAEDEADYYCSSYAGNNNFGVFGGGTKLTVL	–	–	–	–	–	–	–	–	–	–	–	–	–	–
–	–	–	–	–	–	101c: VH SEQ ID NO: 108, VL SEQ ID NO: 110; renamed BKO-4A8-101c (antibody, V domains shown, 4A8 VH Variant 101 M34Q_A40P_N56S_R75K_M96A; 4A8 VL variant c D41G_N52S_N94S, renamed BKO-4A8-101c) VH: EVQLLESGGGLVQPGGSLRLSCAASGFTFSSSTQSWVRQPPGKGLEWVSAISGRGRSTYYADSVKGRFTISRDNSKNTLYLQMNSLRAEDTAVYYCAIQAGYWGQGILVTVSS VL: QSALTQPPSASGSPGQSVTISCIGTSSDVGGYNYVSWYQQHPGKAPKLMIYEVSKRPSGVPDRFSGSKSGNTASLTVSGLQAEDEADYYCSSYAGSNNFGVFGGGTKLTVL	2- to 39 fold	97%	improved potency	98%	70-80%	78%	98%	100%	96%	98%	98%	76%	78%	bound neutrophils (FIG. 12A) and monocytes (FIG. 12B)
